From article PMC11880808 come the findings set out here.

The target in experiment [1] is cynomolgus monkey IL-2 receptor alpha (IL-2Rα) (cynomolgus monkey). In words: BLI; Octet; who was immobilised, temperature and buffer are not told.
Experiment [2] has as its target cynomolgus monkey IL-2 receptor beta and gamma (IL-2Rβγ) complex (cynomolgus monkey) (UniProt Q38J85). The experiment is described as above.

“recombinant human IL-2 (from UniProt P60568 21-153) (ligand)”: the Kd in experiment [1] was determined as 19.9 nM; in experiment [2], 1.29 nM.

Usually Kd stands for the constant that tells how readily two partners part at equilibrium.
